Earlier results, collected in PMC10544997.

Target: FcγRIIa (Homo sapiens) (UniProt P12318)
Sequence (P12318 34-317): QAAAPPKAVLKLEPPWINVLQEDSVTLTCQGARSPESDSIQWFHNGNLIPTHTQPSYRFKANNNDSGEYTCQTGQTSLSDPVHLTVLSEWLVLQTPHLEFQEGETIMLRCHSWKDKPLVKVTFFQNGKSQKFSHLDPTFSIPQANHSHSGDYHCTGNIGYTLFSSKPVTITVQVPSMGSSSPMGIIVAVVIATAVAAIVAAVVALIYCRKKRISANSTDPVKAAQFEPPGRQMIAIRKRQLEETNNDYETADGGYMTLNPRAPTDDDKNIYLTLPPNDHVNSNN

Kd: 1000 nM
Substance: IgG1 Fc (from UniProt P01857)
